Measured values as given in PMC8058328 (Developmental cell, 2021).

Target: T1, GST-SH3BP4-HIS8x (human, UniProt Q9P0V3 1-963)
T1 sequence (looked up): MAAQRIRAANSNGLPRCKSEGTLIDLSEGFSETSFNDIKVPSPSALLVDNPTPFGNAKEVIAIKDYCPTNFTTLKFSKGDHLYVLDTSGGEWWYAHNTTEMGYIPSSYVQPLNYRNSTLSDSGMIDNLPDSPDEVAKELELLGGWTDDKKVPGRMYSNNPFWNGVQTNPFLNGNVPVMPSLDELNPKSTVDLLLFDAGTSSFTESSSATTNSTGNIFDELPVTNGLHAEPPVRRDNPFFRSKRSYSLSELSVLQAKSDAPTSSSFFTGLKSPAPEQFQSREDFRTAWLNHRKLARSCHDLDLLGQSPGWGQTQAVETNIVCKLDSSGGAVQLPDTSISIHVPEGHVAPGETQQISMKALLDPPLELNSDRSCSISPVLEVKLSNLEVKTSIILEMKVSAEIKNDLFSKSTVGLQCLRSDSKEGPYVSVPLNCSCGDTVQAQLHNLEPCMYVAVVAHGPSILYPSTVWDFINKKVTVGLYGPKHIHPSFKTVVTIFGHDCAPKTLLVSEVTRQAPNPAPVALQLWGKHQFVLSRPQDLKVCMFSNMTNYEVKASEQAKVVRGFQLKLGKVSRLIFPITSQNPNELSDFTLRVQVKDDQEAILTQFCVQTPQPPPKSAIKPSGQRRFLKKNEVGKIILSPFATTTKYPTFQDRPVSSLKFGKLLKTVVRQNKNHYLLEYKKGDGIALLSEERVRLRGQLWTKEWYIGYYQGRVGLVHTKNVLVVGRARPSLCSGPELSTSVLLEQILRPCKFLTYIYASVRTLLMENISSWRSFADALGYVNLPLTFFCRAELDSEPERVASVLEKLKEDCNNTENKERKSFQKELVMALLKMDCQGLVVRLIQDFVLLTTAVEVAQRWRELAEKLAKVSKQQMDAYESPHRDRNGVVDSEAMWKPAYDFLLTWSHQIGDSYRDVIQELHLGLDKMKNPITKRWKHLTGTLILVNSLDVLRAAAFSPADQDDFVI
Test: pull-down

binding result: binds
B1: GIPC1-HIS8x (natural protein, human, UniProt O14908 1-333, looked up)
chain: MPLGLGRRKKAPPLVENEEAEPGRGGLGVGEPGPLGGGGSGGPQMGLPPPPPALRPRLVFHTQLAHGSPTGRIEGFTNVKELYGKIAEAFRLPTAEVMFCTLNTHKVDMDKLLGGQIGLEDFIFAHVKGQRKEVEVFKSEDALGLTITDNGAGYAFIKRIKEGSVIDHIHLISVGDMIEAINGQSLLGCRHYEVARLLKELPRGRTFTLKLTEPRKAFDMISQRSAGGRPGSGPQLGTGRGTLRLRSRGPATVEDLPSAFEEKAIEKVDDLLESYMGIRDTELAATMVELGKDKRNPDELAEALDERLGDFAFPDEFVFDVWGAIGDAKVGRY
